Experimental data published in patent publication CN111909274A.

Experiments:
[1] = molecular target: GPC3ΔGPI-FLAG重组蛋白 (GPC3 without its GPI region, C-terminal FLAG tag) (Homo sapiens (Human)) (UniProt P51654); assay: ELISA on coated GPC3ΔGPI-FLAG, antibody pre-treated 2 h at 70℃, reference 4℃
[2] = molecular target: GPC3ΔGPI-FLAG重组蛋白 (GPC3 without its GPI region, C-terminal FLAG tag) (Homo sapiens (Human)) (UniProt P51654); assay: ELISA on coated GPC3ΔGPI-FLAG, antibody pre-treated 2 h at 90℃, reference 4℃
[3] = molecular target: GPC3ΔGPI-FLAG重组蛋白 (GPC3 without its GPI region, C-terminal FLAG tag) (Homo sapiens (Human)) (UniProt P51654); assay: ELISA on coated GPC3ΔGPI-FLAG, nanobody pre-treated 2 h at 70℃, reference 4℃
[4] = molecular target: GPC3ΔGPI-FLAG重组蛋白 (GPC3 without its GPI region, C-terminal FLAG tag) (Homo sapiens (Human)) (UniProt P51654); assay: ELISA on coated GPC3ΔGPI-FLAG, nanobody pre-treated 2 h at 90℃, reference 4℃
[5] = molecular target: mCherry-GPC3 (mCherry fused to the N-terminus of GPC3, stably expressed on HEK293T cells) (UniProt P51654); assay: immunofluorescence colocalisation on HEK293T cells expressing mCherry-GPC3, confocal microscopy

Row | Molecule | 抗原结合能力下降 (fall of OD450 against the 4℃ sample) [1] | 抗原结合能力下降 (fall of OD450 against the 4℃ sample) [2] | 抗原结合能力下降 (fall of OD450 against the 4℃ sample) [3] | 抗原结合能力下降 (fall of OD450 against the 4℃ sample) [4] | 皮尔森相关系数 (Pearson correlation of mCherry and Alexa Fluor 488 signals) [5]
1 | HN3-hFc融合抗体 (known GPC3 nanobody HN3 fused to human Fc, bought from Creative Biolabs) (Fc fusion) | 42.9% | 58.3% |  |  | 
2 | G11纳米抗体 (GPC3 nanobody G11, His-tagged, from pET22b-G11-His) (VHH, not shown: small tags and cut ends) VHH: QVQLVESGGALVQPGGSLRLSCAASSSDFSRNALRWYRQAPGKEREWVCGINWTGSGYAYEDSVKGRFTCSRDDARNTVYLQLNSLKPEDTAVYYCAPLACSNCFPYKHYVYWGQGTQVTVSS |  |  | 16.7% | 30.8% | 0.929
